Experimental findings from publication PMC12884772, “Macrophagic Sclerostin Loop2‐ApoER2 Interaction Required by Sclerostin for Cardiovascular Protective Action” (Advanced Science, 2025) are described below.

The target in one experiment is sclerostin loop2 (Mus musculus, UniProt Q99P68). Description: Pull‐down assay of ApoER2 muteins with sclerostin loop2. The settings on record: Figure 6D. The format is binding. As to the method:
The interaction residues within ApoER2 to sclerostin loop2 were determined in combination with pull‐down assay and BLI analysis. Based on the interaction residues within ApoER2 to sclerostin loop2, a series of Lrp8 mutations were developed. Based on the interaction residues within sclerostin loop2 to ApoER2, a series of sost mutations were developed.
Cell lysates were collected using RIPA Lysis and Extraction Buffer (Thermo Scientific, 89 901) supplemented with Protease Inhibitor Cocktail (CST, 5871) and centrifuged at 4000 rpm for 30 min at 4 °C, and replaced with binding buffer (PBS buffer, 20 mM imidazole, pH 8.0). After pretreatment with binding buffer three times, 20 µL Ni‐NTA Magnetic Agarose Beads were incubated with 6 µg His‐SOST and 6 µg His‐loop3 peptide, respectively, in binding buffer for 2 h at 4 °C with gentle rotation. The beads carrying His‐SOST and His‐loop3 peptide were then incubated with 500 µL cell lysate supernatant at 4 °C overnight with gentle rotation. To eliminate the influence of non‐specific binding between beads and cell lysate, 20 µL beads and 500 µL cell lysate were incubated under the same conditions. […]
The eluted liquid from pull‐down assay was then mixed with SDS‐PAGE loading buffer and boiled for 10 min at 95 °C to make samples. […] The ECL solution (BIO‐RAD, 1 705 061) was used to visualize detected proteins. […]

A further experiment has as its target T1, ApoER2 (Mus musculus, UniProt Q924X6).
T1 construct: FLAG; expressed in transfected cells; host or cells: RAW264.7
T1 sequence (Q924X6 29-996): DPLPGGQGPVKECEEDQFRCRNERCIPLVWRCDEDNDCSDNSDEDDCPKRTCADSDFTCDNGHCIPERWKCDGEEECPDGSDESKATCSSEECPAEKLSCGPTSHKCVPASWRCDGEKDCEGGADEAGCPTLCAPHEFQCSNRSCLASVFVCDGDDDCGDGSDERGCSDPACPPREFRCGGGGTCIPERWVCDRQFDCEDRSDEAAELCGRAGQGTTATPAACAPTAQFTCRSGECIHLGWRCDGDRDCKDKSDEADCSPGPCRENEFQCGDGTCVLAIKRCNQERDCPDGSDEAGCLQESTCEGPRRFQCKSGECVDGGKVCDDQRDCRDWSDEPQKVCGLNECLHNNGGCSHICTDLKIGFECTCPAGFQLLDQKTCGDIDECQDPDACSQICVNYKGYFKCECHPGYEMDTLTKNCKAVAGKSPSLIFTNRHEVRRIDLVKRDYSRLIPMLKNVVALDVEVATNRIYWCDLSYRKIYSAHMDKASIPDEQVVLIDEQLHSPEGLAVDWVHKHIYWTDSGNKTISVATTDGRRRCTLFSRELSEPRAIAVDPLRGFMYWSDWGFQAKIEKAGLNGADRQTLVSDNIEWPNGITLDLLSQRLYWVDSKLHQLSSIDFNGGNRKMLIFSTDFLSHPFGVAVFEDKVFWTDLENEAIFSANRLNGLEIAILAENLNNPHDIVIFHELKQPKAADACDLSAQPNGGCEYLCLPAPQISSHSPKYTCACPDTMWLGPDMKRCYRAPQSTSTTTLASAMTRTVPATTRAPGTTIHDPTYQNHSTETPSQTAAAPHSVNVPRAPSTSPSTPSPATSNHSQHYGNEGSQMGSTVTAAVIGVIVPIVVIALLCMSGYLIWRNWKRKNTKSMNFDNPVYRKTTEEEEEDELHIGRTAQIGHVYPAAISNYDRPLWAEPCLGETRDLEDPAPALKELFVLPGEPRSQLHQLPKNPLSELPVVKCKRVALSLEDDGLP
The experiment is described as follows: Co‐immunoprecipitation of wild‐type/mutated sclerostin with ApoER2 in macrophages (RAW264.7). The format is binding. The settings on record: Figure 6E. As to the method: The interaction of full‐length (FL)/truncated ApoER2 with full‐length (FL) /truncated sclerostin in macrophages (RAW264.7) were determined by pull‐down assay and Co‐IP assay. The binding affinity of ApoER2 to FL sclerostin and sclerostin loop2 were determined by biolayer interferometry (BLI) analysis. Moreover, the binding of sclerostin to ApoER2 on macrophages (RAW264.7) was examined by confocal microscopy.

Sequence of sclerostin loop2 (Q99P68 107-132 limits assumed): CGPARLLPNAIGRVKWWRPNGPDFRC

B1: ApoER2‐M2: ApoER2 mutein P253A, T254A, G268A, W269A, R270A (protein, UniProt Q924X6 29-996, looked up, variant P253A T254A G268A W269A R270A)
Low-density lipoprotein …: DPLPGGQGPVKECEEDQFRCRNERCIPLVWRCDEDNDCSDNSDEDDCPKRTCADSDFTCDNGHCIPERWKCDGEEECPDGSDESKATCSSEECPAEKLSCGPTSHKCVPASWRCDGEKDCEGGADEAGCPTLCAPHEFQCSNRSCLASVFVCDGDDDCGDGSDERGCSDPACPPREFRCGGGGTCIPERWVCDRQFDCEDRSDEAAELCGRAGQGTTATPAACAAAAQFTCRSGECIHLAAACDGDRDCKDKSDEADCSPGPCRENEFQCGDGTCVLAIKRCNQERDCPDGSDEAGCLQESTCEGPRRFQCKSGECVDGGKVCDDQRDCRDWSDEPQKVCGLNECLHNNGGCSHICTDLKIGFECTCPAGFQLLDQKTCGDIDECQDPDACSQICVNYKGYFKCECHPGYEMDTLTKNCKAVAGKSPSLIFTNRHEVRRIDLVKRDYSRLIPMLKNVVALDVEVATNRIYWCDLSYRKIYSAHMDKASIPDEQVVLIDEQLHSPEGLAVDWVHKHIYWTDSGNKTISVATTDGRRRCTLFSRELSEPRAIAVDPLRGFMYWSDWGFQAKIEKAGLNGADRQTLVSDNIEWPNGITLDLLSQRLYWVDSKLHQLSSIDFNGGNRKMLIFSTDFLSHPFGVAVFEDKVFWTDLENEAIFSANRLNGLEIAILAENLNNPHDIVIFHELKQPKAADACDLSAQPNGGCEYLCLPAPQISSHSPKYTCACPDTMWLGPDMKRCYRAPQSTSTTTLASAMTRTVPATTRAPGTTIHDPTYQNHSTETPSQTAAAPHSVNVPRAPSTSPSTPSPATSNHSQHYGNEGSQMGSTVTAAVIGVIVPIVVIALLCMSGYLIWRNWKRKNTKSMNFDNPVYRKTTEEEEEDELHIGRTAQIGHVYPAAISNYDRPLWAEPCLGETRDLEDPAPALKELFVLPGEPRSQLHQLPKNPLSELPVVKCKRVALSLEDDGLP
Turning to B1, the “Binding ability of sclerostin loop2 to ApoER2 mutein versus wild‐type ApoER2” value with sclerostin loop2 is “dramatically weaker”.

B2: ApoER2‐M8: ApoER2 mutein P253A, T254A, G268A, W269A, R270A, N311A, Q312A, E313A, encoded by Lrp8m (protein, UniProt Q924X6 29-996, looked up, variant P253A T254A G268A W269A R270A N311A Q312A E313A)
Low-density lipoprotein …: DPLPGGQGPVKECEEDQFRCRNERCIPLVWRCDEDNDCSDNSDEDDCPKRTCADSDFTCDNGHCIPERWKCDGEEECPDGSDESKATCSSEECPAEKLSCGPTSHKCVPASWRCDGEKDCEGGADEAGCPTLCAPHEFQCSNRSCLASVFVCDGDDDCGDGSDERGCSDPACPPREFRCGGGGTCIPERWVCDRQFDCEDRSDEAAELCGRAGQGTTATPAACAAAAQFTCRSGECIHLAAACDGDRDCKDKSDEADCSPGPCRENEFQCGDGTCVLAIKRCAAARDCPDGSDEAGCLQESTCEGPRRFQCKSGECVDGGKVCDDQRDCRDWSDEPQKVCGLNECLHNNGGCSHICTDLKIGFECTCPAGFQLLDQKTCGDIDECQDPDACSQICVNYKGYFKCECHPGYEMDTLTKNCKAVAGKSPSLIFTNRHEVRRIDLVKRDYSRLIPMLKNVVALDVEVATNRIYWCDLSYRKIYSAHMDKASIPDEQVVLIDEQLHSPEGLAVDWVHKHIYWTDSGNKTISVATTDGRRRCTLFSRELSEPRAIAVDPLRGFMYWSDWGFQAKIEKAGLNGADRQTLVSDNIEWPNGITLDLLSQRLYWVDSKLHQLSSIDFNGGNRKMLIFSTDFLSHPFGVAVFEDKVFWTDLENEAIFSANRLNGLEIAILAENLNNPHDIVIFHELKQPKAADACDLSAQPNGGCEYLCLPAPQISSHSPKYTCACPDTMWLGPDMKRCYRAPQSTSTTTLASAMTRTVPATTRAPGTTIHDPTYQNHSTETPSQTAAAPHSVNVPRAPSTSPSTPSPATSNHSQHYGNEGSQMGSTVTAAVIGVIVPIVVIALLCMSGYLIWRNWKRKNTKSMNFDNPVYRKTTEEEEEDELHIGRTAQIGHVYPAAISNYDRPLWAEPCLGETRDLEDPAPALKELFVLPGEPRSQLHQLPKNPLSELPVVKCKRVALSLEDDGLP
As for B2, in the experiment with sclerostin loop2, the “Binding ability of sclerostin loop2 to ApoER2 mutein versus wild‐type ApoER2” value was “dramatically weaker”.

B3: SOST^loop2m: sclerostin mutein with I94A, G95A, R96A, K98A, W99A, encoded by sost^loop2m (protein)
chain: QGWQAFRNDATEVIPGLGEYPEPPPENNQTMNRAENGGRPPHHPYDAKDVSEYSCRELHYTRFLTDGPCRSAKPVTELVCSGQCGPARLLPNAAAAVAAWRPNGPDFRCIPDRYRAQRVQLLCPGGAAPRSRKVRLVASCKCKRLTRFHNQSELKDFGPETARPQKGRKPRPGARGAKANQAELENAY
For the molecule B3, in the experiment with ApoER2, the “Interaction with ApoER2 by co‐IP” value is given as “No interaction”.
